Measured values published in US20090118184A1 (UNIVERSITY OF ROCHESTER, published 2009).

What was measured:
Assay in all cases: cell-based or functional assay
[1] = molecular target: T1, factor VIIIa A1/A3C1C2 dimer, H281A (human, UniProt P00451 20-391; P00451 1709-2351)
T1 chain 1: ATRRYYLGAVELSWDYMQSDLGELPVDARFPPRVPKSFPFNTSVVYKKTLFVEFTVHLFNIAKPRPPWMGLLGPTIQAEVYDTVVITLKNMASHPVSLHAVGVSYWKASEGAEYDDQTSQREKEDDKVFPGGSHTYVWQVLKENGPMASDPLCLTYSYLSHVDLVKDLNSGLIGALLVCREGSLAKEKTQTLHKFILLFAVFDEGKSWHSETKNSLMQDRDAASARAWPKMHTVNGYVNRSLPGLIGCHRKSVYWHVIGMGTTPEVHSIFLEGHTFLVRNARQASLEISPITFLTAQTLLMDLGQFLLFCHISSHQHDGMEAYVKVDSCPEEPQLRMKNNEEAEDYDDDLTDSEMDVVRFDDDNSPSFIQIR
T1 chain 2: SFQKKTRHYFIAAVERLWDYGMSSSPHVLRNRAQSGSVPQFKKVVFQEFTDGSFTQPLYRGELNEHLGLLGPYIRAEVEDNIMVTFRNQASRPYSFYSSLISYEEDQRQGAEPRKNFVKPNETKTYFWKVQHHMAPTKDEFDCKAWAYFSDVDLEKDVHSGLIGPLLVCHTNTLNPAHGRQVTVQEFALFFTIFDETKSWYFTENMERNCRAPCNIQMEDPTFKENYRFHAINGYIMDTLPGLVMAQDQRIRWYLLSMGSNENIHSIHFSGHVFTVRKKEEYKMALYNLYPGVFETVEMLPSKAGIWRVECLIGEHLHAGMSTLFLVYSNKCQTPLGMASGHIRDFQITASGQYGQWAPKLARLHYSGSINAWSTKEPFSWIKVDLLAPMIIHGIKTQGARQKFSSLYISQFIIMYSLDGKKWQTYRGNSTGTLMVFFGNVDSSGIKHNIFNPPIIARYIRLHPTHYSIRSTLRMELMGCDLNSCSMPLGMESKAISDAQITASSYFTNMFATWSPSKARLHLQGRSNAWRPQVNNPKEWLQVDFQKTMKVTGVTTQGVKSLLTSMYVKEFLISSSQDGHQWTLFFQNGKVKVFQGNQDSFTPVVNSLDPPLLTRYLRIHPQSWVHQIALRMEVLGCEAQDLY

[2] = molecular target: T2, factor VIIIa A1/A3C1C2 dimer, S1949A (human, UniProt P00451 20-391; P00451 1709-2351)
T2 sequence 1: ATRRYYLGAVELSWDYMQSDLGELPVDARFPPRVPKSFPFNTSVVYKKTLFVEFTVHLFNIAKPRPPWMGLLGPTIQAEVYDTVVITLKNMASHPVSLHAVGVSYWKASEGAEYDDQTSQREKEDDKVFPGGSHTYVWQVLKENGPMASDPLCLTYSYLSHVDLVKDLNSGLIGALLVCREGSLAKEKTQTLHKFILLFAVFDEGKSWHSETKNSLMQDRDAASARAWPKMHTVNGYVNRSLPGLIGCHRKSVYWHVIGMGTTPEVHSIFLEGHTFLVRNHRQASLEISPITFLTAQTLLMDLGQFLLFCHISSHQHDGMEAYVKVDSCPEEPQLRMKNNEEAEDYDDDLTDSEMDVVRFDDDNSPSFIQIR
T2 sequence 2: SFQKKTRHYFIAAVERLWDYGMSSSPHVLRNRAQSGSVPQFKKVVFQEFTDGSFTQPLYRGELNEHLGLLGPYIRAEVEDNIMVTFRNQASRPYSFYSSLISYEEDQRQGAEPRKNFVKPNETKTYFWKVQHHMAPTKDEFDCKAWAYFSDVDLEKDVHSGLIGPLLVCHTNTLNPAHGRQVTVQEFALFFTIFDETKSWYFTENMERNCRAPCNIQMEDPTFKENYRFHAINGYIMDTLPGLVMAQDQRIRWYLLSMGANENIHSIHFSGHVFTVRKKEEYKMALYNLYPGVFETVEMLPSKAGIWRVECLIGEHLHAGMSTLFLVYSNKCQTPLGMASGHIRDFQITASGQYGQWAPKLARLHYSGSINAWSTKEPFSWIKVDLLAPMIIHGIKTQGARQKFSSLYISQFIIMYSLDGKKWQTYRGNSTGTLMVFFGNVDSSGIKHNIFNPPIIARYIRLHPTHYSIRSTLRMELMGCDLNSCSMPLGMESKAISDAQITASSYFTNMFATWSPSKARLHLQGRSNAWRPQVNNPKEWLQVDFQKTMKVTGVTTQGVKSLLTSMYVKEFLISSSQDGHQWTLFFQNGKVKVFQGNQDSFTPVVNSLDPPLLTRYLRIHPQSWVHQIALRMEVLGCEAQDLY

[3] = molecular target: T3, factor VIIIa A1/A3C1C2 dimer, Q1820A (human, UniProt P00451 20-391; P00451 1709-2351)
T3 sequence 1: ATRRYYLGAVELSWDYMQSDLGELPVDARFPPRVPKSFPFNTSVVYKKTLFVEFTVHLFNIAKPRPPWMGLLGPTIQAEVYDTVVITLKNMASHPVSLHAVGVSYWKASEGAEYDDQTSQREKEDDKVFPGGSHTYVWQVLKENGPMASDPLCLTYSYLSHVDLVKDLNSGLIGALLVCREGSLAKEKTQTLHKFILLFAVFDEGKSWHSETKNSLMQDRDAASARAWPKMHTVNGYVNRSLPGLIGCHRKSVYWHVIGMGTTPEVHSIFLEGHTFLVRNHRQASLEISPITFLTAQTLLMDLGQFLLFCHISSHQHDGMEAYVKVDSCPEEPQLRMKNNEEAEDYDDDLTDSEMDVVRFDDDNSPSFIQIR
T3 sequence 2: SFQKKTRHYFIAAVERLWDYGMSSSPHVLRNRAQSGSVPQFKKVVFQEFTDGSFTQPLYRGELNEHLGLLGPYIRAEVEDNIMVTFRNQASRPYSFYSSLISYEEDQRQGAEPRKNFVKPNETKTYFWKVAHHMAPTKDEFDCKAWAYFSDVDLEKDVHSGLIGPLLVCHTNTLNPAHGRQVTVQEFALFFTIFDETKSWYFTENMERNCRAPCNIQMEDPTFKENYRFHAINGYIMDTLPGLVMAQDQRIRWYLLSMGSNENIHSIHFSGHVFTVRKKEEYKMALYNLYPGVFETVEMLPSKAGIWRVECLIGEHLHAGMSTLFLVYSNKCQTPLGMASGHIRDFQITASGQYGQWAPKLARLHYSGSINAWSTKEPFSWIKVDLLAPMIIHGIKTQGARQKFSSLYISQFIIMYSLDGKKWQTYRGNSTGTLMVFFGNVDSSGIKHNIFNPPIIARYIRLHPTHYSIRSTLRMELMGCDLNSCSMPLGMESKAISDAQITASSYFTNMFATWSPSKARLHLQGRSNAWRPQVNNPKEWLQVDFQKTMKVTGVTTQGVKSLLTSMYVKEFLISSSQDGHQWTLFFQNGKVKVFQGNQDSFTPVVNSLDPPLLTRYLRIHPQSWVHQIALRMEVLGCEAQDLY

Factor VIIIa decay rate relative to wild type, FIXa (+) [1]: 3.99 relative to wild type
Factor VIIIa decay rate, FIXa (+) [1]: 0.045 min⁻¹
Factor VIIIa decay rate relative to wild type, FIXa (+) [2]: 1.14 relative to wild type
Factor VIIIa decay rate, FIXa (+) [2]: 0.0129 min⁻¹
Factor VIIIa decay rate relative to wild type, FIXa (+) [3]: 1.01 relative to wild type
Factor VIIIa decay rate, FIXa (+) [3]: 0.0114 min⁻¹
B1: factor VIIIa A2 subunit, wild type (other)
chain: SVAKKHPKTWVHYIAAEEEDWDYAPLVLAPDDRSYKSQYLNNGPQRIGRKYKKVRFMAYTDETFKTREAIQHESGILGPLLYGEVGDTLLIIFKNQASRPYNIYPHGITDVRPLYSRRLPKGVKHLKDFPILPGEIFKYKWTVTVEDGPTKSDPRCLTRYYSSFVNMERDLASGLIGPLLICYKESVDQRGNQIMSDKRNVILFSVFDENRSWYLTENIQRFLPNPAGVQLEDPEFQASNIMHSINGYVFDSLQLSVCLHEVAYWYILSIGAQTDFLSVFFSGYTFKHKMVYEDTLTLFPFSGETVFMSMENPGLWILGCHNSDFRNRGMTALLKVSSCDKNTGDYYEDSYEDISAYLLSKNNAIEPR
